Patent US20240425607A1, “IL-18BP ANTAGONIST ANTIBODIES AND THEIR USE IN MONOTHERAPY AND COMBINATION THERAPY IN THE TREATMENT OF CANCER” (Compugen Ltd., priority 2023, published 2024)
“Also recorded” adds a separate entry of the source.

Key:
[1] = Fab Tm by dynamic scanning fluorimetry (DSF); assay type: physicochemical; conditions: optimized antibodies
Experimental: 10 μL of 20× Sypro Orange is added to 20 μL of 0.2-1 mg/mL mAb or Fab solution. A RT-PCR instrument (BioRad CFX96 RT PCR) is used to ramp the sample plate temperature from 40 to 95° C. at 0.5° C. increment, with 2 min equilibrate at each temperature. The negative of first derivative for the raw data is used to extract Tm.

SEC-HPLC % monomer = assay type: physicochemical; conditions: optimized antibodies
Experimental: A TSKgel SuperSW mAb HTP column (22855) was used for fast SEC analysis of mammalian produced mAbs at 0.4 mL/min with a cycle time of 6 min/run. 200 mM Sodium Phosphate and 250 mM Sodium Chloride was used as the mobile phase.

[2] = biological target: T1, human IL18BP-Fc binding to human IL-18 (Homo sapiens, UniProt O95998); experiment: Blocking of hIL18BP-hIL-18 interaction by ELISA, IL18BP plate bound; conditions: 1 ng/ml human IL-18, compared with clone W19089C
T1 sequence (O95998 31-194): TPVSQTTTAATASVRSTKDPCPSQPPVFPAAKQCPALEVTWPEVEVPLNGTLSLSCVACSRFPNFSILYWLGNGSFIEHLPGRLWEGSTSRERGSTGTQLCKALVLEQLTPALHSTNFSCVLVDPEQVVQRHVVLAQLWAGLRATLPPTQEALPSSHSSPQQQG
Experimental: This assay was utilized to identify anti-human IL18BP Abs that inhibit the binding interaction between human IL18BP- and its counterpart, human IL-18. […] Human IL18BP-Fc protein was coated on the wells of a high binding plate overnight at 4° C. (1 μg/ml, 100 μl/well volume). Plates were washed three times with PBS-T buffer (1×PBS pH 7.4, 0.05% Tween20) incubated with 250 μL blocking buffer (2.5% skim milk in PBS) at room temperature (RT) for 2 hr. Blocking buffer was removed and plates were washed three times with PBS-T buffer. Plate-bound ligands were incubated with anti-human IL18BP Abs in 1% BSA in PBS buffer two times serially diluted (2.5-0.019 μg/ml, 100 μL/well volume) at RT for 1 h. Plates were washed one time with PBS. Plate-bound ligands were incubated with human IL-18 (cat. 9124-IL, R&D) in 1% BSA in PBS buffer (1 ng/ml, 100 μL/well volume) at RT for 1 h. Plates were washed three times with PBS-T (0.05% Tween20 in PBS). Biotinylated anti-IL18 detection antibody, cat. D045-6, R&D 1:1000 in 1% BSA in PBS buffer was added (100 μL/well). This was incubated at RT for 1 hr, and plates were washed again. Peroxidase Streptavidin, Jackson, cat. 016-030-084 1:1000 in 2.5% skim milk in PBS was added (100 μL/well) for 1 hr at RT. […] The HRP reaction was stopped by adding 50 μL 1N HCl and absorbance signals at 450 nm were read on a luminescence Reader-EnSpire (Perkin Elmar). […]

[3] = biological target: T2, recombinant human IL18-BP (Homo sapiens, UniProt O95998); experiment: CMV recall assay; assay type: cell-based
T2 construct: purchased R&D systems 119-BP
T2 sequence (O95998 31-194): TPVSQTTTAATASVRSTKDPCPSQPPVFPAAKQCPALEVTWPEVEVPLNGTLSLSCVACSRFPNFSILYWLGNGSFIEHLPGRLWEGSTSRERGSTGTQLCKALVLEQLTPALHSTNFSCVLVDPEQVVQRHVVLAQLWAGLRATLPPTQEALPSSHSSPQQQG
Experimental: Human MEL-624 overexpressing PD-L1 cells were thawed and loaded with CMV pp65 peptide (0.03 μg/ml). The cells were seeded at 100K/well in a 96 well plate and incubated for 30 minutes in 37° C., 5% C02 incubator with a combination rhIL-18 (30 ng/ml, R&D systems, 9124-IL/CF) and rhIL-18BP-Fc chimeric protein (2 μg/ml, R&D systems 119-BP) to allow IL-18+IL-18BP complex formation. After 30 minutes, anti-human IL-18BP (ADI-71722), anti-human PVRIG, anti-human TIGIT (anti-TIGIT), anti-human PD1 (Pembrolizumab) or relevant isotype control (hIgG4) were added to the culture to examine their capability to restore IL-18 activity. All antibodies were added to a final concentration of 10 μg/ml. 30 minutes post incubation with antibodies, thawed CMV-reactive T-cells were added to the culture. Cells and all added solutions were prepared in full IMDM (IMDM media with 10% human serum, 1% Glutamax, 1% MEM eagle, 1% sodium pyruvate, and 1% Penicillin-Streptomycin Solution) to a final volume of 200 μl/well. Plates were incubated for 24 hours in 37° C., 5% C02 incubator, after which the supernatant was collected for IFNγ secretion evaluation. All tests were done in triplicates and each repeated with three donors.
MEL624 cells that overexpress PD-L1 were loaded with CMV peptide pp65. […] CMV-specific T-cells were then added to the culture and IFNg secretion was measured after an overnight incubation.

[4] = tested on: MEL624 cells co-cultured with human TILs; experiment: Killing of MEL624 melanoma cells by human TILs (IncuCyte); assay type: cell-based; conditions: 10 μg/ml; rhIL-18 50 ng/ml + rhIL-18BP 1 μg/ml; 72 hours
Experimental: The co-culture was monitored for 72 hours using an IncuCyte live cell imaging instrument. […] In the presence of the isotype control antibody (black), IL-18BP abrogated the effects of IL-18, while the anti-IL-18BP antibody (turquoise) was able to completely restore these effects.

endogenous IL-18BP = biological target: T3, endogenous IL-18BP (Homo sapiens, UniProt O95998); experiment: TIL:MEL624 co-culture with endogenous IL-18BP levels; assay type: cell-based; conditions: 5 μg/ml; IL-18 3.7 ng/ml, no added IL-18BP; 18 hours; vs isotype
T3 construct: endogenous in cells; host or cells: MEL624 cells and human TILs
T3 sequence (O95998 31-194): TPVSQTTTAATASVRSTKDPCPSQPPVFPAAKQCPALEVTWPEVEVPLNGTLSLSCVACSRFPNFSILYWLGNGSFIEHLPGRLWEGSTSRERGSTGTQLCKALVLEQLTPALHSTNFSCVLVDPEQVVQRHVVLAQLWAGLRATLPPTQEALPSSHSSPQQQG
Experimental: A. Schematic representation of assay setup. MEL624 cells were co-cultured with human TILs that were previously enriched for MART1 or gp100 peptide-specific clones. […] The co-culture was set for 18 hours following which IFNg levels were measured in supernatants. […] Representative examples from two TIL donors are shown.

B1: ADI-71739: anti-IL18-BP antibody, sequences in FIG. 2K; 66716 lineage (antibody, V domains shown)
VH: QLQLQESGPGLVKPSETLSLTCTVSGGSISSPDYPWGWIRQPPGKGLEWIGSIYYQGATYYNPSLKSRVTISVDTSKNQFSLKLSSVTAADTAVYYCARGPYRQLFDYWGQGTLVTVSS
VL: DIQMTQSPSSVSASVGDRVTITCRASQGISSWLAWYQQKPGKAPKLLIYAASSLQSGVPSRFSGSGSGTDFTLTISSLQPEDFATYYCQQGSVFPYTFGGGTKVEIK
Question: Which “Fab Tm (DSF, ° C.)” value [1] does the source give for B1 here?
Answer: Its value is 73.0 °C.

Question: And the “SEC-HPLC, % monomer” value (SEC-HPLC % monomer)?
Answer: The value was 94.9%.

Question: What about the “Blocking effect on binding of human IL18BP to human IL-18” value [2] of the same molecule?
Answer: The value was “superior to Biolegend Ab”.

Question: What about the “IFNγ secretion by CMV-reactive T-cells, as mono” value ([3]; 10 μg/ml, rhIL-18 30 ng/ml + rhIL-18BP 2 μg/ml) of the same molecule?
Answer: The value was “increase IFNγ secretion from CMV-reactive T-cells; also recorded: increase IFNγ secretion by the T cells”.

Question: What about the “IFNγ secretion by CMV-reactive T-cells, in combination” value ([3]; combined with Pembrolizumab, anti-PVRIG or anti-TIGIT, each 10 μg/ml, vs mono) of the same molecule?
Answer: Its value is “in a more potent manner; also recorded: augmented”.

Question: What about the “Killing of melanoma cells by tumor infiltrating lymphocytes” value [4] of the same molecule?
Answer: Its value is “increased killing of melanoma cells”.

Question: And the “IFNg release by tumor infiltrating lymphocytes” value (endogenous IL-18BP)?
Answer: The value was “increased IFNg release”.
